Data taken from patent publication US20180037645A1.
Where two headings read alike, the source gives them in different places.

Assays:
[1] = target: IL-23 alanine shave mutant M10 (human) (UniProt P29460); test: cell-based or functional assay
[2] = target: IL-23 alanine shave mutant M7 (human) (UniProt P29460); test: cell-based or functional assay
[3] = target: IL-23 alanine shave mutant M9 (human) (UniProt P29460); test: cell-based or functional assay
[4] = target: wild-type IL-23 (His-tagged p19 / non-tagged p40) (human) (UniProt P29460); test: cell-based or functional assay
Sequence of wild-type IL-23 (His-tagged p19 / non-tagged p40) (human) (chain, as listed by the source limits assumed, chain 1 of 2): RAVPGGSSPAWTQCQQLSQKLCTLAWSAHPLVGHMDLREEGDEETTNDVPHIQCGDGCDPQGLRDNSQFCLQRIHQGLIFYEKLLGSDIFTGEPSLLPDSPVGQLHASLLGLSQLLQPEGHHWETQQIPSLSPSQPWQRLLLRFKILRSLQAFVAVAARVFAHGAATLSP
Sequence of wild-type IL-23 (His-tagged p19 / non-tagged p40) (human) (P29460 23-328 limits assumed, chain 2 of 2): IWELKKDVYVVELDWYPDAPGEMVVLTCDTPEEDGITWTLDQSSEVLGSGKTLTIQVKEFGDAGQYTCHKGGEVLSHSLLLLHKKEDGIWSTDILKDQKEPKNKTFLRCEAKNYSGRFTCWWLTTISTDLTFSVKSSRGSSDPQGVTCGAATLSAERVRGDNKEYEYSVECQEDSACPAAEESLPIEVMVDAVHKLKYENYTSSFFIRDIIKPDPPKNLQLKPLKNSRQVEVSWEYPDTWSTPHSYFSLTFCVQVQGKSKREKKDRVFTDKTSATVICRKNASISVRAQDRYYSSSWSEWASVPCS

IL-23 D118A (human) [5] = target: IL-23 D118A (human) (UniProt P29460); test: cell-based or functional assay
Sequence of IL-23 D118A (human) (chain, as listed by the source D118A D118A, chain 1 of 2): as the sequence (chain, as listed by the source limits assumed, chain 1 of 2) above, with D99A counted along it
Sequence of IL-23 D118A (human) (P29460 23-328, chain 2 of 2): as the sequence (P29460 23-328 limits assumed, chain 2 of 2) above

IL-23 D55A (human) [6] = target: IL-23 D55A (human) (UniProt P29460); test: cell-based or functional assay
Sequence of IL-23 D55A (human) (chain, as listed by the source D55A D55A, chain 1 of 2): as the sequence (chain, as listed by the source limits assumed, chain 1 of 2) above, with D36A counted along it
Sequence of IL-23 D55A (human) (P29460 23-328, chain 2 of 2): as the sequence (P29460 23-328 limits assumed, chain 2 of 2) above

IL-23 E112A (human) [7] = target: IL-23 E112A (human) (UniProt P29460); test: cell-based or functional assay
Sequence of IL-23 E112A (human) (chain, as listed by the source E112A E112A, chain 1 of 2): as the sequence (chain, as listed by the source limits assumed, chain 1 of 2) above, with E93A counted along it
Sequence of IL-23 E112A (human) (P29460 23-328, chain 2 of 2): as the sequence (P29460 23-328 limits assumed, chain 2 of 2) above

IL-23 H53A (human) [8] = target: IL-23 H53A (human) (UniProt P29460); test: cell-based or functional assay
Sequence of IL-23 H53A (human) (chain, as listed by the source H53A H53A, chain 1 of 2): as the sequence (chain, as listed by the source limits assumed, chain 1 of 2) above, with H34A counted along it
Sequence of IL-23 H53A (human) (P29460 23-328, chain 2 of 2): as the sequence (P29460 23-328 limits assumed, chain 2 of 2) above

IL-23 L116A (human) [9] = target: IL-23 L116A (human) (UniProt P29460); test: cell-based or functional assay
Sequence of IL-23 L116A (human) (chain, as listed by the source L116A L116A, chain 1 of 2): as the sequence (chain, as listed by the source limits assumed, chain 1 of 2) above, with L97A counted along it
Sequence of IL-23 L116A (human) (P29460 23-328, chain 2 of 2): as the sequence (P29460 23-328 limits assumed, chain 2 of 2) above

IL-23 M54A (human) [10] = target: IL-23 M54A (human) (UniProt P29460); test: cell-based or functional assay
Sequence of IL-23 M54A (human) (chain, as listed by the source M54A M54A, chain 1 of 2): as the sequence (chain, as listed by the source limits assumed, chain 1 of 2) above, with M35A counted along it
Sequence of IL-23 M54A (human) (P29460 23-328, chain 2 of 2): as the sequence (P29460 23-328 limits assumed, chain 2 of 2) above

[11] = target: wild-type IL-23 (His-tagged p19 / non-tagged p40) (human) (UniProt P29460); test: cell-based or functional assay; remark: listed apart in the source
[12] = target: IL-23 alanine shave mutant M5 (human) (UniProt P29460); test: cell-based or functional assay
Sequence of IL-23 alanine shave mutant M5 (human) (chain, as listed by the source mutant limits assumed, form in doubt, chain 1 of 2): as the sequence (chain, as listed by the source limits assumed, chain 1 of 2) above, with H34A, M35A, E93A, L97A, D99A counted along it
Sequence of IL-23 alanine shave mutant M5 (human) (P29460 23-328 limits assumed, stated change not applied, form in doubt, chain 2 of 2): as the sequence (P29460 23-328 limits assumed, chain 2 of 2) above

IL-23 D118A (human) [13] = target: IL-23 D118A (human) (UniProt P29460); test: SPR (Biacore T100), antibody captured by protein A
IL-23 D55A (human) [14] = target: IL-23 D55A (human) (UniProt P29460); test: SPR (Biacore T100), antibody captured by protein A
IL-23 E112A (human) [15] = target: IL-23 E112A (human) (UniProt P29460); test: SPR (Biacore T100), antibody captured by protein A
IL-23 H53A (human) [16] = target: IL-23 H53A (human) (UniProt P29460); test: SPR (Biacore T100), antibody captured by protein A
IL-23 L116A (human) [17] = target: IL-23 L116A (human) (UniProt P29460); test: SPR (Biacore T100), antibody captured by protein A
IL-23 M54A (human) [18] = target: IL-23 M54A (human) (UniProt P29460); test: SPR (Biacore T100), antibody captured by protein A
[19] = target: IL-23 alanine shave mutant M10 (human) (UniProt P29460); test: SPR (Biacore T100), antibody captured by protein A
[20] = target: IL-23 alanine shave mutant M5 (human) (UniProt P29460); test: SPR (Biacore T100), antibody captured by protein A
[21] = target: IL-23 alanine shave mutant M7 (human) (UniProt P29460); test: SPR (Biacore T100), antibody captured by protein A
[22] = target: IL-23 alanine shave mutant M9 (human) (UniProt P29460); test: SPR (Biacore T100), antibody captured by protein A

Sequence of IL-23 alanine shave mutant M9 (human) (chain, as listed by the source mutant limits assumed, form in doubt, chain 1 of 2): as the sequence (chain, as listed by the source limits assumed, chain 1 of 2) above, with L97A, D99A, Q104A counted along it
Sequence of IL-23 alanine shave mutant M9 (human) (P29460 23-328 limits assumed, change not shown, form in doubt, chain 2 of 2): as the sequence (P29460 23-328 limits assumed, chain 2 of 2) above
Sequence of IL-23 alanine shave mutant M10 (human) (chain, as listed by the source mutant limits assumed, form in doubt, chain 1 of 2): as the sequence (chain, as listed by the source limits assumed, chain 1 of 2) above, with H34A, M35A, D36A, F144A counted along it
Sequence of IL-23 alanine shave mutant M10 (human) (P29460 23-328 limits assumed, change not shown, form in doubt, chain 2 of 2): as the sequence (P29460 23-328 limits assumed, chain 2 of 2) above
Sequence of IL-23 alanine shave mutant M7 (human) (chain, as listed by the source mutant limits assumed, form in doubt, chain 1 of 2): as the sequence (chain, as listed by the source limits assumed, chain 1 of 2) above, with W123A, E124A, T125A, Q126A, Q127A counted along it
Sequence of IL-23 alanine shave mutant M7 (human) (P29460 23-328 limits assumed, change not shown, form in doubt, chain 2 of 2): as the sequence (P29460 23-328 limits assumed, chain 2 of 2) above

| Substance | IC50, pSTAT3 in BaF3/huIL-23Rα/huIL-12Rβ1 transfectants [1] [pM] | IC50, pSTAT3 in BaF3/huIL-23Rα/huIL-12Rβ1 transfectants [2] [pM] | IC50, pSTAT3 in BaF3/huIL-23Rα/huIL-12Rβ1 transfectants [3] [pM] | IC50, pSTAT3 in BaF3/huIL-23Rα/huIL-12Rβ1 transfectants [4] [pM] | IC50, pSTAT3 in BaF3/huIL-23Rα/huIL-12Rβ1 transfectants (IL-23 D118A (human) [5]) [nM] | IC50, pSTAT3 in BaF3/huIL-23Rα/huIL-12Rβ1 transfectants (IL-23 D55A (human) [6]) [nM] | IC50, pSTAT3 in BaF3/huIL-23Rα/huIL-12Rβ1 transfectants (IL-23 E112A (human) [7]) [nM] | IC50, pSTAT3 in BaF3/huIL-23Rα/huIL-12Rβ1 transfectants (IL-23 H53A (human) [8]) [nM] | IC50, pSTAT3 in BaF3/huIL-23Rα/huIL-12Rβ1 transfectants (IL-23 L116A (human) [9]) [nM] | IC50, pSTAT3 in BaF3/huIL-23Rα/huIL-12Rβ1 transfectants (IL-23 M54A (human) [10]) [nM] | IC50, pSTAT3 in BaF3/huIL-23Rα/huIL-12Rβ1 transfectants [11] [nM] | other results |
| --- | --- | --- | --- | --- | --- | --- | --- | --- | --- | --- | --- | --- |
| Merck's IL-23 p19 mAb (7G10) (antibody) | 350 | 310 | 260 | 380 | 0.22 | 0.18 | > 3 | 0.19 | 0.24 | 0.27 | 0.18 |  |
| STELARA® (ustekinumab, IL-12/IL-23 p40 mAb) (antibody) | 71 | 59 | 67 | 79 | 0.052 | 0.077 | 0.033 | 0.078 | 0.054 | 0.081 | 0.067 | IC50, pSTAT3 in BaF3/huIL-23Rα/huIL-12Rβ1 transfectants [12]: 62 pM; ΔΔG (IL-23 D118A (human) [13]): -0.3 kcal/mol; ΔΔG (IL-23 D55A (human) [14]): 0.5 kcal/mol; ΔΔG (IL-23 E112A (human) [15]): 0.3 kcal/mol; ΔΔG (IL-23 H53A (human) [16]): 0.3 kcal/mol; ΔΔG (IL-23 L116A (human) [17]): 0.5 kcal/mol; ΔΔG (IL-23 M54A (human) [18]): 0.3 kcal/mol; ΔΔG [19]: 0.3 kcal/mol; ΔΔG [20]: 0.1 kcal/mol; ΔΔG [21]: 0.1 kcal/mol; ΔΔG [22]: 0.1 kcal/mol |
